Here are results for one substance from article PMC5686944.

The target of the assay is plasminogen (UniProt P00747).
UniProt P00747, sequence (P00747 20-810): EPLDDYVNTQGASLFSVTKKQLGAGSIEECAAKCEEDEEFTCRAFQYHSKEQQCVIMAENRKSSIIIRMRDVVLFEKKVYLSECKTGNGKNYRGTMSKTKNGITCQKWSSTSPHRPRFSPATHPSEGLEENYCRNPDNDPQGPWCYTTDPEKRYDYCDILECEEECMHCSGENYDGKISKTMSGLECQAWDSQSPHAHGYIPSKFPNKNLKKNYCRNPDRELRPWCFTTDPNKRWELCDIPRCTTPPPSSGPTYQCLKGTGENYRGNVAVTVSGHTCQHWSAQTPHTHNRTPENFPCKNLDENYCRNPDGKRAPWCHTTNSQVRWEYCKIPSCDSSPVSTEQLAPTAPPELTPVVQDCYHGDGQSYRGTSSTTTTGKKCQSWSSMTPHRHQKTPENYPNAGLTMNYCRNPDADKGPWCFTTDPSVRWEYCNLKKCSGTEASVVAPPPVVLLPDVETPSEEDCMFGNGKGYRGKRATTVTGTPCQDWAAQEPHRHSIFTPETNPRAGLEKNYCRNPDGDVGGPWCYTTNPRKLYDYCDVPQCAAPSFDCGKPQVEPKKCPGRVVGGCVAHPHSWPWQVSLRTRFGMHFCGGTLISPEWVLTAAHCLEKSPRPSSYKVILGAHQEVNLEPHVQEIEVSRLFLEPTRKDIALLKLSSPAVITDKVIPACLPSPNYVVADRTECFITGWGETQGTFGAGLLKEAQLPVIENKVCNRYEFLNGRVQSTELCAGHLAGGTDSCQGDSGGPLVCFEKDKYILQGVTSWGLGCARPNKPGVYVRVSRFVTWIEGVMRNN

Take “wild-type staphylokinase (Sak) (natural protein)”: the fibrin plate assay, diameter of halo pattern (5.0 x 10^3 IU unmodified Sak, 310 K, 20 h) was found to be 25.4 mm.
